Results taken from patent US20120149060A1 (EUROPAISCHES LABORATORIUM FUR MOLEKULARBIOLOGIE EMBL, published 2012).

Legend:
[1] = target: T1, full-length human RAP74 with a C-terminal oligo-histidine tag (human, UniProt P35269 1-517); experiment: co-expression in E. coli, Ni2+ capture by the His tag on RAP74, then S200 size exclusion chromatography
T1 construct: Stated to be full-length; co-expressed with RAP30 in E. coli BL21(DE3); also called hRAP74; RAP74his; not shown: C-terminal oligo-histidine tag
T1 sequence (looked up): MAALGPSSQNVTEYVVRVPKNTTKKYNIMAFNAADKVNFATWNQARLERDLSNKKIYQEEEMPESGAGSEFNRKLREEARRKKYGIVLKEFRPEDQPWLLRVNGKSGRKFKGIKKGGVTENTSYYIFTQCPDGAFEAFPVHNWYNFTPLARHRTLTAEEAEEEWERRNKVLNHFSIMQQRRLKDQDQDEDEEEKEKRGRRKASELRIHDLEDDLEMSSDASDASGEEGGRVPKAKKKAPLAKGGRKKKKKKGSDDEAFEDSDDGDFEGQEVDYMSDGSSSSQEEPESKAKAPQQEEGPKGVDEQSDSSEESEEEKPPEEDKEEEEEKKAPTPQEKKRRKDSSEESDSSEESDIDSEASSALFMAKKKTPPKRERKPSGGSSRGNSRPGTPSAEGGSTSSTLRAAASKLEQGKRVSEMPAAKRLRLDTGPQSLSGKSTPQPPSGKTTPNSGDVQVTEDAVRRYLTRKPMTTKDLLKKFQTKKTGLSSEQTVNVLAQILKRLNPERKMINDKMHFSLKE

[2] = target: T2, Von Hippel Lindau protein (amino acids 54-213), fused at its N-terminus to a six-histidine-thioredoxin fusion … (human, UniProt P40337 54-213); experiment: co-expression in E. coli, Ni2+ affinity capture by the tag on VHL, SDS-PAGE
T2 construct: range 54-213; Subunit of the VHLbc complex, expressed from the pACE-VHLbc tricistron; also called VHL; HisTrxVHL; not shown: N-terminal six-histidine-thioredoxin fusion tag
T2 sequence (P40337 54-213): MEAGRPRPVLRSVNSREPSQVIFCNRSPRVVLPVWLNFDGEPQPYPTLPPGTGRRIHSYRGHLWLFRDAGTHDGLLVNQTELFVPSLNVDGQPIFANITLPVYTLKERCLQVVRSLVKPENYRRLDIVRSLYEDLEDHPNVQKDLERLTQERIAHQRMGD

Pml1p = target: T3, Pml1p (yeast, UniProt Q07930 1-204); experiment: co-expression in E. coli, Ni2+ capture by the His6 tag on Snu17p, then S200 size exclusion chromatography
T3 construct: Stated to be full-length; subunit of the yeast RES complex; also called Pm1lp
T3 sequence (looked up): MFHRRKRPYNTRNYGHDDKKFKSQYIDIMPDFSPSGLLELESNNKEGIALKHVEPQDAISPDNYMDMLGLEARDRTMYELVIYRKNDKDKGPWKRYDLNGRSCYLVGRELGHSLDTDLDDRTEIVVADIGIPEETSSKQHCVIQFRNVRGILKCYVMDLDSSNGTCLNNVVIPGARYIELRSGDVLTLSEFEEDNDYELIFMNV

Bud13p = target: T4, Bud13p (yeast, UniProt P46947 1-266); experiment: as above
T4 construct: Stated to be full-length; subunit of the yeast RES complex
T4 sequence (looked up): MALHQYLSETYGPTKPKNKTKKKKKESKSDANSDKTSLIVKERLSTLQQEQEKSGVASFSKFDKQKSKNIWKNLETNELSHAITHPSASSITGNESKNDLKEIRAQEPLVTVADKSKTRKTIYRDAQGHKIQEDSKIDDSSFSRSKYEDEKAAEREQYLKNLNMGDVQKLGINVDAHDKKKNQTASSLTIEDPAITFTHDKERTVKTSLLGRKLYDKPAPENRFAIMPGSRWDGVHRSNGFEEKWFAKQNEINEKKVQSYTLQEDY

B1: full-length human RAP30 (other, UniProt P13984 1-249, looked up)
chain: MAERGELDLTGAKQNTGVWLVKVPKYLSQQWAKASGRGEVGKLRIAKTQGRTEVSFTLNEDLANIHDIGGKPASVSAPREHPFVLQSVGGQTLTVFTESSSDKLSLEGIVVQRAECRPAASENYMRLKRLQIEESSKPVRLSQQLDKVVTTNYKPVANHQYNIEYERKKKEDGKRARADKQHVLDMLFSAFEKHQYYNLKDLVDITKQPVVYLKEILKEIGVQNVKGIHKNTWELKPEYRHYQGEEKSD
notes: Stated to be full-length; also called hRAP30
binding result [1]: binds

B2: full-length elongin b (other, human, UniProt Q15370 1-118, looked up)
chain: MDVFLMIRRHKTTIFTDAKESSTVFELKRIVEGILKRPPDEQRLYKDDQLLDDGKTLGECGFTSQTARPQAPATVGLAFRADDTFEALCIEPFSSPPELPDVMKPQDSGSSANEQAVQ
notes: Stated to be full-length
binding result [2]: binds

B3: His6-tagged Snu17p (other, yeast, UniProt P40565 1-148, looked up)
chain: MNKIQQINDKELQSGILSPHQSWHNEYKDNAYIYIGNLNRELTEGDILTVFSEYGVPVDVILSRDENTGESQGFAYLKYEDQRSTILAVDNLNGFKIGGRALKIDHTFYRPKRSLQKYYEAVKEELDRDIVSKNNAEKLILAKKDQPN
notes: Stated to be full-length; subunit of the yeast RES complex; also called Snu17p-NHis; not shown: six-histidine tag fused to the N-terminus
binding result (Pml1p): binds | binding result (Bud13p): binds
